These are literature values, as cited in paper PMC8065807.

The target in the data set is EGFR (Homo sapiens) (UniProt P00533).

One may read the Kd as the concentration at which binding is half-saturated. As for GE11, the Kd was 22 nM.
